Assay results: patent US12246066 (AGENUS, dated 2025)

B1: AGEN1884.H1.1 (IgG1) (antibody, V domains shown)
VH: EVQLVESGGGLVKPGGSLRLSCAASGFTFSSYSMNWVRQAPGKGLEWVSSISSSSSYIYYADSVKGRFTISRDNAKNSLYLQMNSLRAEDTAVYYCARVGLFGPFDIWGQGTMVTVSS
VL: EIVLTQSPGTLSLSPGERATLSCRASQSVSRYLGWYQQKPGQAPRLLIYGASTRATGIPDRFSGSGSGTDFTLTITRLEPEDFAVYYCQQYGSSPWTFGQGTKVEIK
B2: AGEN1884.H1.3 (IgG1) (antibody, V domains shown)
VH: EVQLVESGGGLVKPGGSLRLSCAASGFTFSSYSMNWVRQAPGKGLEWVSSISSSSSYIYYAESVKGRFTISRDNAKNSLYLQMNSLRAEDTAVYYCARVGLMGPFDIWGQGTMVTVSS
VL: EIVLTQSPGTLSLSPGERATLSCRASQSVSRYLGWYQQKPGQAPRLLIYGASTRATGIPDRFSGSGSGTDFTLTITRLEPEDFAVYYCQQYGSSPWTFGQGTKVEIK
B3: AGEN1884.H1.2 (IgG1) (antibody, V domains shown)
VH: EVQLVESGGGLVKPGGSLRLSCAASGFTFSSYSMNWVRQAPGKGLEWVSSISSSSSYIYYADSVKGRFTISRDNAKNSLYLQMNSLRAEDTAVYYCARVGLMGPFDIWGQGTLVTVSS
VL: EIVLTQSPGTLSLSPGERATLSCRASQSVSRYLGWYQQKPGQAPRLLIYGASTRATGIPDRFSGSGSGTDFTLTITRLEPEDFAVYYCQQYGSSPWTFGQGTKVEIK
B4: AGEN1884.H2.3 (IgG1) (antibody, V domains shown)
VH: EVQLVESGGGLVKPGGSLRLSCAASGFTFSSYSMNWVRQAPGKGLEWVSSISSSSSYIYYAESVKGRFTISRDNAKNSLYLQMNSLRAEDTAVYYCARVGLMGPFDIWGQGTLVTVSS
VL: EIVLTQSPGTLSLSPGERATLSCRASQSVSRYLGWYQQKPGQAPRLLIYGASTRATGIPDRFSGSGSGTDFTLTITRLEPEDFAVYYCQQYGSSPWTFGQGTKVEIK
B5: AGEN1884.H2.2 (IgG1) (antibody, V domains shown)
VH: EVQLVESGGGLVKPGGSLRLSCAASGFTFSSYSMNWVRQAPGKGLEWVSSISSSSSYIYYAESVKGRFTISRDNAKNSLYLQMNSLRAEDTAVYYCARVGLFGPFDIWGQGTMVTVSS
VL: EIVLTQSPGTLSLSPGERATLSCRASQSVSRYLGWYQQKPGQAPRLLIYGASTRATGIPDRFSGSGSGTDFTLTITRLEPEDFAVYYCQQYGSSPWTFGQGTKVEIK
B6: AGEN1884.H2.1 (IgG1) (antibody, V domains shown)
VH: EVQLVESGGGLVKPGGSLRLSCAASGFTFSSYSMNWVRQAPGKGLEWVSSISSSSSYIYYADSVKGRFTISRDNAKNSLYLQMNSLRAEDTAVYYCARVGLFGPFDIWGQGTLVTVSS
VL: EIVLTQSPGTLSLSPGERATLSCRASQSVSRYLGWYQQKPGQAPRLLIYGASTRATGIPDRFSGSGSGTDFTLTITRLEPEDFAVYYCQQYGSSPWTFGQGTKVEIK
B7: AGEN1884.H3 (IgG1 L235V/F243L/R292P/Y300L/P396L) (antibody)
heavy: EVQLVESGGGLVKPGGSLRLSCAASGFTFSSYSMNWVRQAPGKGLEWVSSISSSSSYIYYAESVKGRFTISRDNAKNSLYLQMNSLRAEDTAVYYCARVGLFGPFDIWGQGTLVTVSSASTKGPSVFPLAPSSKSTSGGTAALGCLVKDYFPEPVTVSWNSGALTSGVHTFPAVLQSSGLYSLSSVVTVPSSSLGTQTYICNVNHKPSNTKVDKRVEPKSCDKTHTCPPCPAPELVGGPSVFLLPPKPKDTLMISRTPEVTCVVVDVSHEDPEVKFNWYVDGVEVHNAKTKPPEEQYNSTLRVVSVLTVLHQDWLNGKEYKCKVSNKALPAPIEKTISKAKGQPREPQVYTLPPSREEMTKNQVSLTCLVKGFYPSDIAVEWESNGQPENNYKTTPLVLDSDGSFFLYSKLTVDKSRWQQGNVFSCSVMHEALHNHYTQKSLSLSPG
light: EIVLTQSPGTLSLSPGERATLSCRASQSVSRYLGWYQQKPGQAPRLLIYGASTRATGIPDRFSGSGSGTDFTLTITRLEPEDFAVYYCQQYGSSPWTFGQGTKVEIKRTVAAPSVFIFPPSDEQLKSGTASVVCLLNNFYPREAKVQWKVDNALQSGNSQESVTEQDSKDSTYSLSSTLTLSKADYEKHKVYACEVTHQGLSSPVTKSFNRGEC
B8: AGEN1884.H3 (IgG1 S239D/A330L/I332E) (antibody)
heavy: EVQLVESGGGLVKPGGSLRLSCAASGFTFSSYSMNWVRQAPGKGLEWVSSISSSSSYIYYAESVKGRFTISRDNAKNSLYLQMNSLRAEDTAVYYCARVGLFGPFDIWGQGTLVTVSSASTKGPSVFPLAPSSKSTSGGTAALGCLVKDYFPEPVTVSWNSGALTSGVHTFPAVLQSSGLYSLSSVVTVPSSSLGTQTYICNVNHKPSNTKVDKRVEPKSCDKTHTCPPCPAPELLGGPDVFLFPPKPKDTLMISRTPEVTCVVVDVSHEDPEVKFNWYVDGVEVHNAKTKPREEQYNSTYRVVSVLTVLHQDWLNGKEYKCKVSNKALPLPEEKTISKAKGQPREPQVYTLPPSREEMTKNQVSLTCLVKGFYPSDIAVEWESNGQPENNYKTTPPVLDSDGSFFLYSKLTVDKSRWQQGNVFSCSVMHEALHNHYTQKSLSLSPG
light: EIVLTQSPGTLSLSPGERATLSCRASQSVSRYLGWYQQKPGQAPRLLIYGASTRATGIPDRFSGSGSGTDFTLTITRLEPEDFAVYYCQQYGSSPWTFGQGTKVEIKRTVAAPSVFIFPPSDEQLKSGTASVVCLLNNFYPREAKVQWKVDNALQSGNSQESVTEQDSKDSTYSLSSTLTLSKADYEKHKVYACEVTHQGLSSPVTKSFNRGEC
notes: Section 7.2.2 prints 'A330E'; also called AGEN1884.H3 (IgG1-S239D/A330E/I332E) as printed in section 7.2.2

Biological target: T1, human CTLA-4 on Jurkat cells engineered to constitutively express human CTLA-4 (Promega) (human, UniProt P16410 36-223)
T1 construct: Bought cell line; also called CTLA-4-expressing cells; cells expressing human CTLA-4
Experiment: flow cytometry, 2 µg/ml antibody on Jurkat cells expressing human CTLA-4
Description: Jurkat cells engineered to constitutively express human CTLA-4 (Promega) were used to analyze the binding of anti-CTLA-4 antibodies. Briefly, the cells were stained at 5 ×10^5 cells/well using 2 µg/ml of antibody in a 96-well plate for 30 minutes at 4° C. The cells were washed twice and incubated for 20 minutes at 4° C. with an anti-human IgG secondary antibody (Thermo Scientific, Cat #31529). The cells were washed and suspended in […] of 2% paraformaldehyde (Alfa Aesar, Cat #43368) prepared in PBS. Data were collected with BD FACS Canto II.

Binding result, binds:
B1
B2
B3
B4
B5
B6

Biological target: T1, human CTLA-4 on Jurkat cells engineered …
Experiment: flow cytometry, 5 µg/ml antibody on Jurkat cells expressing human CTLA-4
Description: The binding of anti-CTLA-4 antibodies AGEN1884.H3 (IgG_1 S239D/I332E), AGEN1884.H3 (IgG_1 S239D/A330L/I332E), and AGEN1884.H3 (IgG_1L235V/F243L/R292P/Y300L/P396L) to CTLA-4-expressing cells was characterized similarly as described above. Briefly, Jurkat cells engineered to express human CTLA-4 (Promega) were stained first with 5 μg/ml of an anti-CTLA-4 antibody or an isotype control antibody and then with an anti-human IgG secondary antibody (Thermo Scientific, Cat #31529). The cells were analyzed using BD FACS Canto II.

Binding result, binds:
B7
B8
